Source: US20250019439A1 (Adimab, published 2025)

B1: ADI-34145 IgG (antibody, V domains shown)
VH: EVQLLESGGGLVQPGGSLRLSCAASGFTFSSYAMSWVRQAPGKGLEWVSTISGSGGSTYYADSVKGRFTISRDNSKNTLYLQMNSLRAEDTAVYYCARLGGRRGSGSSYYYYYGMDVWGQGTTVTVSS
VL: not shown
notes: anti-ID IgG
B2: ADI-34134 IgG (antibody, V domains shown)
VH: QVQLVQSGAEVKKPGSSVKVSCKASGGTFSSYAISWVRQAPGQGLEWMGGIIPIFGTANYAQKFQGRVTITADESTSTAYMELSSLRSEDTAVYYCARGAPNYYGSGGYDDGWFDPWGQGTLVTVSS
VL: EIVLTQSPGTLSLSPGERATLSCRASQSVSSDYLAWYQQKPGQAPRLLIYGASSRATGIPDRFSGSGSGTDFTLTISRLEPEDFAVYYCQQFGRVPTFGGGTKVEIK

Key:
ADI-76357 = target: T1, ADI-76357; test: SPR Carterra avidity, yeast anti-ID
T1 construct: anti-CD3 antibody made in CHO cells, captured by anti-human Fc
T1 sequence (VH, as listed by the source, chain 1 of 2): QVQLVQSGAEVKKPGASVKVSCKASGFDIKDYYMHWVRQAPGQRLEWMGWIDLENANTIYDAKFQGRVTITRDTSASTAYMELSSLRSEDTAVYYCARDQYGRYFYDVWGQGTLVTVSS
T1 sequence (VL, as listed by the source, chain 2 of 2): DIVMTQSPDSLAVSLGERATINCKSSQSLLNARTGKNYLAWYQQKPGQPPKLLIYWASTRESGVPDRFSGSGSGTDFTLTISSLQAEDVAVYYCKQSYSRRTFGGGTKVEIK
Summary of the method: (§1)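 Fitted with a 1:1 binding model after double referencing: Carterra LSA kinetics at 25° C in HBSTE, with anti-idiotype analytes binding anti-CD3 antibodies (100 nM) captured via anti-human Fc on HC30M chip. Dissociation followed 300 s.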

ADI-26924 = target: T2, ADI-26924; test: SPR Carterra avidity, yeast anti-ID
T2 construct: anti-CD3 antibody made in CHO cells, captured by anti-human Fc
T2 sequence (VH, as listed by the source, chain 1 of 2): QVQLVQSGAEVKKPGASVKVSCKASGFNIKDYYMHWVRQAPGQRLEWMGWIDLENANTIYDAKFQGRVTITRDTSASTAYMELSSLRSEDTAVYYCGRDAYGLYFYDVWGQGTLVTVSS
T2 sequence (VL, as listed by the source, chain 2 of 2): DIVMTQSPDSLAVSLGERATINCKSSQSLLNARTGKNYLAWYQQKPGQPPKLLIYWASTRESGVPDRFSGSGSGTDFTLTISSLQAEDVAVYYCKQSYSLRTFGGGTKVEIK
Summary of the method: as §1

ADI-26920 IgG = target: T3, ADI-26920 IgG; test: SPR Carterra avidity, yeast anti-ID
T3 construct: anti-CD3 IgG
T3 sequence (VH, as listed by the source limits assumed, chain 1 of 2): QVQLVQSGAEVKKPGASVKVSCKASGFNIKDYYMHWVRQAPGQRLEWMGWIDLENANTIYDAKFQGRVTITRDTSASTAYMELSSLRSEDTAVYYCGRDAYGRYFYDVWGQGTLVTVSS
Summary of the method: as §1

ADI-26919 = target: T4, ADI-26919; test: SPR Carterra avidity, yeast anti-ID
T4 construct: anti-CD3 antibody made in CHO cells, captured by anti-human Fc
T4 sequence (VH, as listed by the source limits assumed, chain 1 of 2): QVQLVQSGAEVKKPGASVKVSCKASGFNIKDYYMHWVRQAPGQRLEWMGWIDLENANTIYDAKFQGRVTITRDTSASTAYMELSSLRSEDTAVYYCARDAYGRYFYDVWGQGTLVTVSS
Summary of the method: as §1

ADI-26913 IgG = target: T5, ADI-26913 IgG; test: SPR Carterra avidity, yeast anti-ID
T5 construct: anti-CD3 IgG
T5 sequence (VH, as listed by the source limits assumed, chain 1 of 2): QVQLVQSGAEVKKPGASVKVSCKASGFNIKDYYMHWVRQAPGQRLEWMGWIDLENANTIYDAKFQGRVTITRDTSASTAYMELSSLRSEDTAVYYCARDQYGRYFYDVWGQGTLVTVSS
Summary of the method: as §1

ADI-26943 = target: T6, ADI-26943; test: SPR Carterra avidity, yeast anti-ID
T6 construct: anti-CD3 antibody made in CHO cells, captured by anti-human Fc
T6 sequence (VH, as listed by the source, chain 1 of 2): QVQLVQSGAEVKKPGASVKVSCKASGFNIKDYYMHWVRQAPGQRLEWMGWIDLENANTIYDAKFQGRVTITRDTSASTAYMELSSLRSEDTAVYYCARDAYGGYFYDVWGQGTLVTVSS
T6 sequence (VL, as listed by the source, chain 2 of 2): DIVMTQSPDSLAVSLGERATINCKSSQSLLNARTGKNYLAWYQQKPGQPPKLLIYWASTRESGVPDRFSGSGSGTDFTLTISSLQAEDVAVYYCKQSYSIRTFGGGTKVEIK
Summary of the method: as §1

ADI-26906 IgG = target: T7, ADI-26906 IgG; test: SPR Carterra avidity, CHO anti-ID, *koff limit
T7 construct: anti-CD3 IgG
Description: (§2) Kinetic analysis was conducted at 25° C. in an HBSTE running buffer system (Carterra Cat #3630) using a Carterra LSA (Carterra USA, Salt Lake City, UT). The sample compartment was maintained at 20° C. for the duration of each experiment.
(§3) For antibody capture experiments, a goat anti-human Fc antibody (Jackson ImmunoResearch) was covalently coupled to an HC30M sensor chip surface via standard amine coupling (1:1 EDC:NHS) and then blocked with ethanolamine (1.0 M, pH 8.5). Covalent coupling steps were performed in 25 mM MES buffer (Carterra, Cat #3625) plus 0.05% Tween20. The anti-CD3 antibodies (100 nM in running buffer) were flowed over discrete regions of interest on the chip surface for 5 minutes. […] Dissociation of the anti-idiotype antibodies was monitored for 300s. Several blank buffer samples were injected over the entire chip surface at the start of each non-regenerative kinetic cycle. The preceding blank buffer injection was used for blank surface subtraction. At the end of each non-regenerative kinetic cycle, all surfaces were regenerated via two 30s injections of 10 mM glycine, pH 1.7.
For data processing and fitting, sensorgrams were double reference subtracted with a baseline drift correction of 4 RU. Sensorgrams were y-aligned and baseline corrected, filtered and cropped to include only the association and dissociation steps. Data was fitted to a 1:1 binding model using Carterra Kinetics Data Analysis software version 1.7.1.3055.

ADI-22523 IgG = target: T8, ADI-22523 IgG; test: BLI; tip anti-ID IgG, solution ADI-22523 IgG
T8 construct: anti-CD3 IgG
T8 sequence (VH, as listed by the source limits assumed, chain 1 of 2): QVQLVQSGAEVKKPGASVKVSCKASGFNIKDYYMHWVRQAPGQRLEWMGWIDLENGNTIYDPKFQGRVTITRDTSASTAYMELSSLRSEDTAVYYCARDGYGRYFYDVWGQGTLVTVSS
T8 sequence (VL, as listed by the source limits assumed, chain 2 of 2): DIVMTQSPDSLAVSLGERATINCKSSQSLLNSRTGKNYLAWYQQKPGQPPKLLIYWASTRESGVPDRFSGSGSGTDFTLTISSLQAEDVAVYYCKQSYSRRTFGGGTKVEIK
Summary of the method: (§4)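 Sensors carrying captured anti-ID IgG were equilibrated 30 min in assay buffer before a 60 s baseline. Equilibrium KD was taken as koff/kon from a 1:1 model.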

ADI-26954 Fab = target: T9, ADI-26954 Fab; test: BLI; tip ADI-34145 IgG, solution anti-CD3 Fab
T9 construct: anti-CD3 Fab by papain digestion of the IgG
T9 sequence (VH, as listed by the source limits assumed, chain 1 of 2): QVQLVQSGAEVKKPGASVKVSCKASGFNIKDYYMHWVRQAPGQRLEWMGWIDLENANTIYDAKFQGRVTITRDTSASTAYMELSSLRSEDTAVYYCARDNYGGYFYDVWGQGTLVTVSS
T9 sequence (VL, as listed by the source limits assumed, chain 2 of 2): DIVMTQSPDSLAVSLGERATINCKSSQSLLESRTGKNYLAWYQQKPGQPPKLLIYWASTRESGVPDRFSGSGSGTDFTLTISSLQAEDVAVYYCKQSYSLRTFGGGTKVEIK
Description: (§5) ForteBio affinity measurements were performed generally as previously described (Estep et al., MAbs. 2013 5(2):270-8). Briefly, ForteBio affinity measurements were performed by loading antibody IgG or Fabs on-line onto AHC sensors. Sensors were equilibrated off-line in assay buffer for 30 minutes and then monitored on-line for 60 seconds for baseline establishment. For avid binding measurement, sensors with loaded antibodies were exposed to IgG or Fab solutions for 3 minutes, afterwards they were transferred to assay buffer for 3 minutes for off-rate measurement. Kinetics data were fit using a 1:1 binding model in the data analysis software provided by ForteBio to obtain equilibrium dissociation constant (KD=koff/kₒₙ) values. In each column, tip-immobilized antibodies are listed first and solution antibodies second.
(§6) In each column, tip-immobilized antibodies are listed first and solution antibodies second.

ADI-26906 Fab = target: T10, ADI-26906 Fab; test: BLI; tip ADI-34145 IgG, solution anti-CD3 Fab
T10 construct: anti-CD3 Fab by papain digestion of the IgG
Description: as §5, §6

ADI-22523 Fab [1] = target: T11, ADI-22523 Fab; test: BLI; tip ADI-34145 IgG, solution anti-CD3 Fab
T11 construct: anti-CD3 Fab by papain digestion of the IgG
Description: as §5, §6

ADI-26913 Fab = target: T12, ADI-26913 Fab; test: BLI; tip ADI-34145 IgG, solution anti-CD3 Fab
T12 construct: anti-CD3 Fab by papain digestion of the IgG
Description: as §5, §6

CTL-62223 = target: T13, CTL-62223; test: SPR Carterra, yeast anti-ID
T13 construct: also called mosunetuzumab
T13 sequence (VH, as listed by the source, chain 1 of 2): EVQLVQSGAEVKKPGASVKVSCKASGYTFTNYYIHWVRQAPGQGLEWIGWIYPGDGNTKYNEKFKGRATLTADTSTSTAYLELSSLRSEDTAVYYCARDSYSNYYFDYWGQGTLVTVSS
T13 sequence (VL, as listed by the source, chain 2 of 2): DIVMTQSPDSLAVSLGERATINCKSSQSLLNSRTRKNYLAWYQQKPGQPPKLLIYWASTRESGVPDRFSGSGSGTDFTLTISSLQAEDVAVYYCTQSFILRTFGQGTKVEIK
Summary of the method: as §1

ADI-67445 = target: T14, ADI-67445; test: SPR Carterra, yeast anti-ID
T14 construct: anti-CD3 antibody made in CHO cells, captured by anti-human Fc
T14 sequence (VH, as listed by the source limits assumed, chain 1 of 2): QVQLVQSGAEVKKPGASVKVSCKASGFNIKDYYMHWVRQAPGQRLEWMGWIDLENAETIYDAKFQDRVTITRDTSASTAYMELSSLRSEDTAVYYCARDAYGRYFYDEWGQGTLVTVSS
Summary of the method: as §1

CTL-62228 = target: T15, CTL-62228; test: SPR Carterra, yeast anti-ID
T15 construct: also called glofitamab
Summary of the method: as §1

CTL-62240 = target: T16, CTL-62240; test: SPR Carterra, yeast anti-ID
T16 construct: also called ONO-4685
T16 sequence (VH, as listed by the source, chain 1 of 2): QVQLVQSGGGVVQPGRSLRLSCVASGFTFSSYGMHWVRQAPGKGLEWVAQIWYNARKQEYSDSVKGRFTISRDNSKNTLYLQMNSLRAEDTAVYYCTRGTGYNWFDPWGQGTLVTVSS
T16 sequence (VL, as listed by the source, chain 2 of 2): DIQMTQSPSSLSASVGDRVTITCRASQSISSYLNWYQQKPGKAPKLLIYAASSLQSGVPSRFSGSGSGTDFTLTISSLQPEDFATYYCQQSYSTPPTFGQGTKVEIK
Summary of the method: as §1

CTL-62227 = target: T17, CTL-62227; test: SPR Carterra, yeast anti-ID
T17 construct: also called odronextamab
T17 sequence (VH, as listed by the source, chain 1 of 2): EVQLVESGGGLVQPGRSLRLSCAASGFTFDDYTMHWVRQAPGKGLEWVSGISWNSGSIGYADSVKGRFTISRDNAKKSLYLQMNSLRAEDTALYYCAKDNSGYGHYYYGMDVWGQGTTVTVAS
T17 sequence (VL, as listed by the source, chain 2 of 2): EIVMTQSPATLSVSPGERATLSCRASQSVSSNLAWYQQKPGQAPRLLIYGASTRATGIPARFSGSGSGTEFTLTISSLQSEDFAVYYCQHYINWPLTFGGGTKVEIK
Summary of the method: as §1

ADI-70327 = target: T18, ADI-70327; test: SPR Carterra, yeast anti-ID
T18 construct: anti-CD3 antibody made in CHO cells, captured by anti-human Fc
T18 sequence (VH, as listed by the source limits assumed, chain 1 of 2): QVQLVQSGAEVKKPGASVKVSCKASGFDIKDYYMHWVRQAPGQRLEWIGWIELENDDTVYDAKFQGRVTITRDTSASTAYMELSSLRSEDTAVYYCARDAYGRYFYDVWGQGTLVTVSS
T18 sequence (VL, as listed by the source limits assumed, chain 2 of 2): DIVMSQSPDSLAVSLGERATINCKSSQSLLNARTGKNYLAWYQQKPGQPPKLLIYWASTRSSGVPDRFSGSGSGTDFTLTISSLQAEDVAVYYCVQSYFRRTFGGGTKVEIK
Summary of the method: as §1

ADI-76359 = target: T19, ADI-76359; test: SPR Carterra avidity, CHO anti-ID
T19 construct: anti-CD3 antibody made in CHO cells, captured by anti-human Fc
T19 sequence (VH, as listed by the source, chain 1 of 2): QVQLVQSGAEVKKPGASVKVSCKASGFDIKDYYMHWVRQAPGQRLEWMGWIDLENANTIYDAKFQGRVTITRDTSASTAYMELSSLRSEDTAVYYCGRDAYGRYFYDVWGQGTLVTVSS
Description: as §2, §3
(§7) In Tables 10A-10C, anti-CD3 antibodies are listed by ADI number or CTL number in the first column. […] CTL-62223 is mosunetuzumab, CTL-62227 is odronextamab, CTL-62228 is glofitamab, and CTL-62240 is ONO-4685. […] “W.B.” means weak binding under the conditions of this assay and thus a KD was unable to be assigned. “N.B.” means no binding under the conditions of this assay.

ADI-74968 = target: T20, ADI-74968; test: SPR Carterra avidity, CHO anti-ID
T20 construct: pH-dependent anti-CD3 antibody made in CHO cells
T20 sequence (VH, as listed by the source, chain 1 of 2): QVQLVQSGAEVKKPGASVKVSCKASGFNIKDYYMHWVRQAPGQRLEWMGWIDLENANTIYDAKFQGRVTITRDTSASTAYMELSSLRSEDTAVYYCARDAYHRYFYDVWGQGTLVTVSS
T20 sequence (VL, as listed by the source, chain 2 of 2): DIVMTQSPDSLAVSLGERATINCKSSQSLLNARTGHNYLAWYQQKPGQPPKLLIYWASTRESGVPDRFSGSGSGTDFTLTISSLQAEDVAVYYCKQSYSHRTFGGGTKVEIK
Description: as §2, §3, §7

ADI-26916 IgG = target: T21, ADI-26916 IgG; test: SPR Carterra avidity, CHO anti-ID
T21 construct: anti-CD3 IgG
T21 sequence (VH, as listed by the source, chain 1 of 2): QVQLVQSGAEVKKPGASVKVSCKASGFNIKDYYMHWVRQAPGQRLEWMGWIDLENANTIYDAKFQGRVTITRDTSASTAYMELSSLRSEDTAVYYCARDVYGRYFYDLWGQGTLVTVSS
Description: as §2, §3, §7

ADI-22523 Fab [2] = target: T11, ADI-22523 Fab; test: BLI; tip anti-ID IgG, solution ADI-22523 Fab
Summary of the method: as §4

ADI-74965 = target: T22, ADI-74965; test: SPR Carterra avidity, CHO anti-ID; CHO-produced ADI-34134 (Table 10C)
T22 construct: pH-dependent anti-CD3 antibody made in CHO cells
T22 sequence (VL, as listed by the source, chain 2 of 2): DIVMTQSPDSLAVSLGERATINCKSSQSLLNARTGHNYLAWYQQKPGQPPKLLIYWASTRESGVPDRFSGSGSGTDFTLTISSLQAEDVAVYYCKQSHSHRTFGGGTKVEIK
Description: as §2, §3
(§8) For data processing and fitting, sensorgrams were double reference subtracted with a baseline drift correction of 4 RU. Sensorgrams were y-aligned and baseline corrected, filtered and cropped to include only the association and dissociation steps. […]

ADI-48650 = target: T23, ADI-48650; test: as above
T23 construct: pH-dependent anti-CD3 antibody made in CHO cells
T23 sequence (VH, as listed by the source, chain 1 of 2): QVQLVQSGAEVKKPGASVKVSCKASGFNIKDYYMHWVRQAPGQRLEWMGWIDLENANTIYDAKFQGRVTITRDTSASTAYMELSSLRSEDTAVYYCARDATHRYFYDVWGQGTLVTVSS
T23 sequence (VL, as listed by the source, chain 2 of 2): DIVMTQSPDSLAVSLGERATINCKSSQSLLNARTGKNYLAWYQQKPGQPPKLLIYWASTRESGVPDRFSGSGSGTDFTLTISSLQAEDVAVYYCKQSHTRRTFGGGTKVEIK
Description: as §2, §3, §8

Row | Binder | Kd (ADI-76357) [nM] | Kd (ADI-26924) [nM] | Kd (ADI-26920 IgG) [nM] | Kd (ADI-26919) [nM] | Kd (ADI-26913 IgG) [nM] | Kd (ADI-26943) [nM] | Kd (ADI-26906 IgG) [nM] | Kd (ADI-22523 IgG) [nM] | Kd (ADI-76359) [nM] | Kd (ADI-74968) [nM] | Kd (ADI-26916 IgG) [nM] | Kd (ADI-22523 Fab [2]) [nM] | also measured
1 | B1 | 23 | 17 | 8.6 | 18 | 18 | 9.5 | 6.4 | 2.72 | 8 | 41 | 17 | 4.13 | Kd (ADI-26954 Fab): 19.4 nM; Kd (ADI-26906 Fab): 3.55 nM; Kd (ADI-22523 Fab [1]): 4.13 nM; Kd (ADI-26913 Fab): 7.52 nM; binding result (CTL-62223): no binding (tested: up to 200 nM); binding result (ADI-67445): no binding (tested: up to 200 nM); binding result (CTL-62228): no binding (tested: up to 200 nM); binding result (CTL-62240): no binding (tested: up to 200 nM); binding result (CTL-62227): no binding (tested: up to 200 nM); binding result (ADI-70327): no binding (tested: up to 200 nM)
2 | B2 | 9.5 | 20 | 16 | 9.1 | 21 | 13 | 0.18 | 0.46 | 0.15 | 0.78 | 0.17 | 5.62 | binding result (ADI-74965): binds; binding result (ADI-48650): binds
